Data taken from patent US11054428B2, “Inhalable nanosensors with volatile reporters and uses thereof” (Massachusetts Institute of Technology, priority 2018, dated 2021).

Legend:
neutrophil elastase (NE) [1] = biological target: T1, neutrophil elastase (NE) (Mus musculus, UniProt Q3UP87); test: Mechanistic study: NE inhibitor given before nanosensor in infected mice, breath signal; assay type: in vivo; conditions: 5 mg/kg intratracheal, 15 min before nanosensor, infected mice (FIG. 12)
T1 construct: from tissue; host or cells: lungs of CD-1 mice, healthy or infected with P. aeruginosa PAO1 (homogenates ex vivo, or lung in vivo)
T1 sequence (Q3UP87 27-265): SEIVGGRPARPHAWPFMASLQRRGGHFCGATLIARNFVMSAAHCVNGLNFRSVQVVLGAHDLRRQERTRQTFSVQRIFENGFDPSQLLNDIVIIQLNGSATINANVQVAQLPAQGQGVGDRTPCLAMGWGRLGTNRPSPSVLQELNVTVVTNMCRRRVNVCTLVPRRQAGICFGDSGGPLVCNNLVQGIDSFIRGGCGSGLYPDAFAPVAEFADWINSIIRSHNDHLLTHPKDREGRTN

[2] = biological target: T2, lung homogenates (neutrophil elastase) (Mus musculus, UniProt Q3UP87); test: Ex vivo reporter release from nanosensors mixed with infected and healthy lung homogenates; design: species or system CD-1 mice; conditions: 24 h post-inoculation with P. aeruginosa PAO1 (FIG. 3C)
T2 construct: from tissue; host or cells: lungs of CD-1 mice, healthy or infected with P. aeruginosa PAO1 (homogenates ex vivo, or lung in vivo)
T2 sequence (Q3UP87 27-265): T1 sequence (Q3UP87 27-265)
Procedure: Ultimately, the goal was to administer nanosensors into the lungs of mouse models of bacterial pneumonia to test for measurable reporter levels in the breath. Prior to direct administration into animal infection models, nanosensors were mixed ex vivo with infected and healthy lung homogenates. Bacterial pneumonia was established in CD-1 mice by intratracheal injection of 1.5×10^6 cfu Pseudomonas aeruginosa strain PAO1 (FIG. 3A). At 24 h post-inoculation, the time at which mice were euthanized and lung homogenates were prepared, infected lung homogenates had ˜22-fold greater neutrophil elastase concentration than healthy lung homogenates (FIG. 3B and FIG. 7). […] When mixed with nanosensors, infected lung homogenates triggered 5-fold faster reporter release compared to healthy lung homogenates (FIG. 3C).

neutrophil elastase (NE) [3] = biological target: T1, neutrophil elastase (NE); assay type: in vivo, mice
Procedure: With confirmation that infected lungs trigger greater reporter release and at detectable levels, nanosensors were then tested in acute pneumonia mouse models. […] Infected-7 and Infected-12, which have high initial reporter levels, have nanosensors predominantly in the airway. […] Reporters released from the sensor in the airways are expected to be expired in the breath more rapidly than free reporters deeper in the lung as the tidal volume is only a fraction of the total volume of the lung. […] In fact, infected breath samples at 16 min (18 min post-injection) have 3-fold higher mean reporter levels than breath samples from healthy controls (p=0.0035) (FIG. 4E and FIG. 6, right).
Therefore, subsequent studies focused on nanosensors with pentafluoropropylamine or heptafluoropropylamine reporters. […] Breath signal was reduced by ˜70% due to inhibitor administration, confirming the role of NE in releasing reporters in vivo to generate breath signal (FIG. 12).

| Compound | reduction of breath signal (neutrophil elastase (NE) [1]) [%] | reporter release rate, infected vs healthy lung homogenates [2] [fold] | breath signal, infected vs healthy mice (neutrophil elastase (NE) [3]; 10, 20 and 30 min after administration, low and high doses (FIGS. 10A-10B)) | dose dependence of breath signal (neutrophil elastase (NE) [3]; 10 vs 100 μM doses) | AUROC for identifying infected mice by breath signal (neutrophil elastase (NE) [3]; 10 min, low dose (10 μM), p=0.0062) | mean reporter levels in breath, infected vs healthy controls (neutrophil elastase (NE) [3]; 16 min timepoint (18 min post-injection), p=0.0035) [fold] | reporter levels in breath, infected vs healthy (2-way ANOVA) (neutrophil elastase (NE) [3]; 20 min breath collection, p<0.05) | duration of SNR >1.0 relative to unattached peptide substrate (neutrophil elastase (NE) [3]; FIG. 11B) [×] | reporter levels in breath, infected mice vs healthy controls after convergence (neutrophil elastase (NE) [3]; after first 14 min of breath collection (FIG. 4B)) [fold] | time to disease-distinguishing reporter signal in the breath (neutrophil elastase (NE) [3]; after inhalation) [min] | earliest time of perfect distinction between mice with and without bacterial pneumonia (neutrophil elastase (NE) [3]; after nanosensor inhalation) [min] | breath signal vs peptide substrate unattached to scaffold (neutrophil elastase (NE) [3]; infected mice (FIG. 11A)) | timepoint of maximum effect size of reporter levels (neutrophil elastase (NE) [3]; infected vs healthy (FIG. 4D)) [min] | detectability of reporter levels in breath (neutrophil elastase (NE) [3]; intratracheal instillation, 10 μM equivalent peptide dose) |
| --- | --- | --- | --- | --- | --- | --- | --- | --- | --- | --- | --- | --- | --- | --- |
| CC(C)(C)C(=O)Oc1ccc(S(=O)(=O)Nc2ccccc2C(=O)NCC(=O)O)cc1 [sivelestat] | ~70 | – | – | – | – | – | – | – | – | – | – | – | – | – |
| nanosensor: NE peptide substrate Nle(O-Bzl)-Met(O)2-Oic-Abu with C-terminal PFC reporter, conjugated via CKKK-PEG4 linker to 40 kDa 8-arm PEG; pentafluoropropylamine reporter in vivo (CKKKXXXX; not fully specified; non-natural residues) | – | 5 | significantly higher | dose-dependent | 1.0 | 3 | significantly greater | ~3 | ~3 | ≤ 20 | ≥ 12 | higher breath signal than peptide substrates | 16 | detectable |
